How the values were obtained:
His-KRS = target: T1, His-KRS (UniProt Q15046 1-597); assay: ELISA, coated His-KRS, absorbance at 450 nm
T1 construct: not shown: His tag
Description: (§1) On a 96-well plate (Corning 3690 flat bottom, 96-well half-area plates), MRS proteins (His-MRS, MRS full) and other ARS proteins (DX2 tag free, 34S-DX2, 34S-AIMP2, His-CRS, His-AIMP1, His-GRS, His-WRS, His-KRS) were each coated at a concentration of 1 μg/ml. 8A12 antibody was added at a concentration of 500 ng/ml to the 96-well plate coated with coated with each of the ARS proteins, followed by incubation for 1 hour. Thereafter, HRP-conjugated anti-mouse IgG secondary antibody was added, followed by incubation for 1 hour, and the absorbance at 450 nm was measured by ELISA. As a substrate, 3,3′,5,5′-tetramethylbenzidine (TMB) was used.

[1] = target: T2, MRS-AIMP3 co-purified protein (human, UniProt P56192 1-900; O43324 1-174, limits assumed); assay: SPR, MRS+AIMP3 protein coated on CM5 chip, antibody as analyte; MRS+AIMP3 co-purified protein on the CM5 chip, 8A12 antibody as analyte
T2 construct: Complex of MRS and AIMP3, co-expressed in E. coli BL21DE3 and co-purified; also called MRS+AIMP3 protein
T2 sequence 1: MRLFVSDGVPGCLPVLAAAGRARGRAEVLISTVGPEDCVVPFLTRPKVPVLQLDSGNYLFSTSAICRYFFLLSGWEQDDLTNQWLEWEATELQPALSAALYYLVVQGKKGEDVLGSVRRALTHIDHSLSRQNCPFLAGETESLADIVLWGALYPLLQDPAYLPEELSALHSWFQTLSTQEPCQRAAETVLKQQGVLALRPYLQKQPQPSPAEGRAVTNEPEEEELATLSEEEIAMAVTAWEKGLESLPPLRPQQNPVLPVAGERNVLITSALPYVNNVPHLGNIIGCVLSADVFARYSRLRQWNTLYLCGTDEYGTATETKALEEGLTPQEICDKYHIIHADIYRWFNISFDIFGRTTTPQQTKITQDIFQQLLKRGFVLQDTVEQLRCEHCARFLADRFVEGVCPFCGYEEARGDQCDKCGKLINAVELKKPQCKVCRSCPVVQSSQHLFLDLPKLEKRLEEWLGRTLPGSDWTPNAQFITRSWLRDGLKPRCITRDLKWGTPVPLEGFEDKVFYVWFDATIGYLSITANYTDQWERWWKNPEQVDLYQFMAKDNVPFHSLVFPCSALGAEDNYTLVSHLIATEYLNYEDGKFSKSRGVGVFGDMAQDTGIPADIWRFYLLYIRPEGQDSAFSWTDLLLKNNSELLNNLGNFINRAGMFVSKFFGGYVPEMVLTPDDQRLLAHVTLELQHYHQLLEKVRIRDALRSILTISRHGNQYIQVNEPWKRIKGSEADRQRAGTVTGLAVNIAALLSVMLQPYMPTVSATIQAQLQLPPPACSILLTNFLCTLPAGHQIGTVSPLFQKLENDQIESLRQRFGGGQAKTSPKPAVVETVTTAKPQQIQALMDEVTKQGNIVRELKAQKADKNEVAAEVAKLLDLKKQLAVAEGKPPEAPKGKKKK
T2 sequence 2: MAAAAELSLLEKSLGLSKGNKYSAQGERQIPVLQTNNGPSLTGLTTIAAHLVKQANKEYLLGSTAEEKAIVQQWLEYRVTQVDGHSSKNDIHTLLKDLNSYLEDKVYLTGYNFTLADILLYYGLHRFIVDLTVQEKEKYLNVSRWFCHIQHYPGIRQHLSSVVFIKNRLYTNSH
Description: (§2) To investigate MRS-specific affinity of the 8A12 antibody, a surface plasmon resonance (SPR) test was performed using MRS-AIMP3 co-purified protein (hereinafter, MRS+AIMP3 protein) and AIMP3 protein. MRS+AIMP3 or AIMP3 protein was coated on a CM5 chip and the 8A12 antibody was allowed to flow down, thereby measuring the degree of binding response of the protein. An analyte sample or buffer was injected at a flow rate of 30 μl/min for 8 minutes, and washed for 20 minutes.

His-GRS = target: T3, His-GRS (UniProt P41250 55-739); assay: ELISA, coated His-GRS, absorbance at 450 nm
T3 construct: not shown: His tag
T3 sequence (looked up): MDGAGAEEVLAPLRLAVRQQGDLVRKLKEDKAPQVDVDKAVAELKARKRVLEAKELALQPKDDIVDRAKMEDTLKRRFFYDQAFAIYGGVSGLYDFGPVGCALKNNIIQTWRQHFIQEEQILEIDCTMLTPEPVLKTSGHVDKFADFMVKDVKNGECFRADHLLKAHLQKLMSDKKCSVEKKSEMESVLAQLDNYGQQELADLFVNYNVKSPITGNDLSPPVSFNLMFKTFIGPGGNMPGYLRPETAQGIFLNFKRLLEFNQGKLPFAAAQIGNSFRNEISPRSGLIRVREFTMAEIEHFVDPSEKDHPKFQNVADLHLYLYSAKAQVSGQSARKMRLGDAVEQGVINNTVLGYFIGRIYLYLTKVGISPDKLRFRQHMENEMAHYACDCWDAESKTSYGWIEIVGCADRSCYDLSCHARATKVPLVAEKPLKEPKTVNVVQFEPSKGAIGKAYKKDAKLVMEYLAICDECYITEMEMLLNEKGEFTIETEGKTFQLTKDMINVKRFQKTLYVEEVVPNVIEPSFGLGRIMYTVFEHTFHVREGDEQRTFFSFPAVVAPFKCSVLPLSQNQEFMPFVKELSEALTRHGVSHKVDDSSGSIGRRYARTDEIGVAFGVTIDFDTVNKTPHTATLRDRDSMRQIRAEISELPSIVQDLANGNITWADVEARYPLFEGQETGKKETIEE
Description: as §1

[2] = target: T4, aminoacyl-tRNA synthetase complex-interacting multifunctional protein 3 (AIMP3) (Homo sapiens (Human), UniProt O43324 1-174, limits assumed); assay: SPR, AIMP3 protein on a CM5 chip, 8A12 antibody as analyte at 0.20 to 200 nM
T4 construct: The construct of the AIMP3-alone protein is not described; also called AIMP3 protein
T4 sequence: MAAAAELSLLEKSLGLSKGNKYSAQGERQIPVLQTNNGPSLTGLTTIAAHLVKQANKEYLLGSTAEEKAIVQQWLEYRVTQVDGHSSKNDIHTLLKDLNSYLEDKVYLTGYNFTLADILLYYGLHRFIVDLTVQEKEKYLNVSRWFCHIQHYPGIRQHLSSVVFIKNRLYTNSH
Description: as §2

His-WRS = target: T5, His-WRS (UniProt P23381 1-471, limits assumed); assay: ELISA, coated His-WRS, absorbance at 450 nm
T5 construct: not shown: His tag
T5 sequence (looked up): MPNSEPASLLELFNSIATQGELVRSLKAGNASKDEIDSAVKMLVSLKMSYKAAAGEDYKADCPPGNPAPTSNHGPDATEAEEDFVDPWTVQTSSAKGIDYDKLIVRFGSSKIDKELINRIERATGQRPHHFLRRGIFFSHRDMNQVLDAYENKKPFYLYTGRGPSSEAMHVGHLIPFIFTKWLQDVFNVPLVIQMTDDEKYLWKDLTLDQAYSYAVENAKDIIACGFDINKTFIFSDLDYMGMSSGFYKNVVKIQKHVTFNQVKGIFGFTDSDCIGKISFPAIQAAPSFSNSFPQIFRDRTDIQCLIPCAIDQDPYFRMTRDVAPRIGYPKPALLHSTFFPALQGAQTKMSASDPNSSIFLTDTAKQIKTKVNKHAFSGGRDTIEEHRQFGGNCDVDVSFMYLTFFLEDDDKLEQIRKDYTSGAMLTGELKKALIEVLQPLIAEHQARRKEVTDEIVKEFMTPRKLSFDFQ
Description: as §1

His-AIMP1 = target: T6, His-AIMP1 (UniProt Q12904 1-312, limits assumed); assay: ELISA, coated His-AIMP1, absorbance at 450 nm
T6 construct: not shown: His tag
T6 sequence (looked up): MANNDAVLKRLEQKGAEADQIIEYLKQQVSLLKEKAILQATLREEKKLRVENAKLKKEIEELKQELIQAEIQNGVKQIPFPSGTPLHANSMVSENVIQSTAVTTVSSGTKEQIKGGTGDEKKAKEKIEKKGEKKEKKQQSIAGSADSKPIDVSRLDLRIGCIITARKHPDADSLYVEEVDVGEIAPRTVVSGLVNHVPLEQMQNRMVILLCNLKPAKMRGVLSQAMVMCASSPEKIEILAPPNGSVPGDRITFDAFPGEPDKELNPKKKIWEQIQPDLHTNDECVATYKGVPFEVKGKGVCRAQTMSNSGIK
Description: as §1

34S-AIMP2 = target: T7, 34S-AIMP2 (UniProt Q13155 1-320); assay: ELISA, coated 34S-AIMP2, absorbance at 450 nm
T7 construct: The meaning of 34S is unknown
T7 sequence (looked up): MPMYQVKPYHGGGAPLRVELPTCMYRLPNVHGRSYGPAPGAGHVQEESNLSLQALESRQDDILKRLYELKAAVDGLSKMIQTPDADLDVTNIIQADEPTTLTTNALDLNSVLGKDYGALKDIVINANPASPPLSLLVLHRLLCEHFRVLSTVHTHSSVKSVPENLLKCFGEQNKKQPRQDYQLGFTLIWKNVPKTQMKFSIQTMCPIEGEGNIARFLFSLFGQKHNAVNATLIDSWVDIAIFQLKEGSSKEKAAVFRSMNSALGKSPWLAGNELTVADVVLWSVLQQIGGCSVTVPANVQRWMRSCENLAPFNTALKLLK
Description: as §1

[3] = target: T2, MRS-AIMP3 co-purified protein; assay: SPR, MRS+AIMP3 protein on a CM5 chip, 8A12 antibody as analyte at 0.39 to 200 nM
Description: as §2

His-CRS = target: T8, His-CRS (UniProt P49589 1-748); assay: ELISA, coated His-CRS, absorbance at 450 nm
T8 construct: not shown: His tag
T8 sequence (looked up): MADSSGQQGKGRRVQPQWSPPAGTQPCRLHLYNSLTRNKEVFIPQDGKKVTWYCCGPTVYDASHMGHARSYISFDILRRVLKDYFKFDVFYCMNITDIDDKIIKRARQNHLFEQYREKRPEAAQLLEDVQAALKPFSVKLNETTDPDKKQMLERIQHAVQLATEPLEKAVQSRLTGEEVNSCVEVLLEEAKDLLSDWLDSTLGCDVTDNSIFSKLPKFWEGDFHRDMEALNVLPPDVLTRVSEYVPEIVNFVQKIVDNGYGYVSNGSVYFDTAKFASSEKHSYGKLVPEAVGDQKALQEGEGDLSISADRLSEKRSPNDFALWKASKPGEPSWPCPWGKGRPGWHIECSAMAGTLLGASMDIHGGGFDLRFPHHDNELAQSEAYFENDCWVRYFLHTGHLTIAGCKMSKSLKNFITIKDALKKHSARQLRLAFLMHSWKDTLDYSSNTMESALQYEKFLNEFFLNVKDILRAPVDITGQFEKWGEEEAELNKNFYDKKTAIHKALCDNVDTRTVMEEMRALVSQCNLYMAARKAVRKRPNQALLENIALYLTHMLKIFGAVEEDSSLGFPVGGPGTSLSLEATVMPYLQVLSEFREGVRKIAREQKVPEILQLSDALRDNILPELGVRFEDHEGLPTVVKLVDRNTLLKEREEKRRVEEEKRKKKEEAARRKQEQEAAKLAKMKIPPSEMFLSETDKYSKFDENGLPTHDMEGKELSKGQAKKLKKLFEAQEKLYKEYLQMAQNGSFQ
Description: as §1

[4] = target: T9, MRS fragment peptide of aa 851-880 (human); assay: ELISA, peptide coated at 300 ng/well, antibody at 10 nM
T9 peptide: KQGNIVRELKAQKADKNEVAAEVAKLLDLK
Description: The 8A12 antibody as a primary antibody was diluted to 10 nM (1× PBST-Tween 0.05%), and HRP-conjugated Goat anti-mouse IgG (Thermo) as a secondary antibody was diluted at 1:10000 (1×PBST-Tween0.05%), and the absorbance was measured at 450 nm.

T1 sequence (Q15046 whole entry): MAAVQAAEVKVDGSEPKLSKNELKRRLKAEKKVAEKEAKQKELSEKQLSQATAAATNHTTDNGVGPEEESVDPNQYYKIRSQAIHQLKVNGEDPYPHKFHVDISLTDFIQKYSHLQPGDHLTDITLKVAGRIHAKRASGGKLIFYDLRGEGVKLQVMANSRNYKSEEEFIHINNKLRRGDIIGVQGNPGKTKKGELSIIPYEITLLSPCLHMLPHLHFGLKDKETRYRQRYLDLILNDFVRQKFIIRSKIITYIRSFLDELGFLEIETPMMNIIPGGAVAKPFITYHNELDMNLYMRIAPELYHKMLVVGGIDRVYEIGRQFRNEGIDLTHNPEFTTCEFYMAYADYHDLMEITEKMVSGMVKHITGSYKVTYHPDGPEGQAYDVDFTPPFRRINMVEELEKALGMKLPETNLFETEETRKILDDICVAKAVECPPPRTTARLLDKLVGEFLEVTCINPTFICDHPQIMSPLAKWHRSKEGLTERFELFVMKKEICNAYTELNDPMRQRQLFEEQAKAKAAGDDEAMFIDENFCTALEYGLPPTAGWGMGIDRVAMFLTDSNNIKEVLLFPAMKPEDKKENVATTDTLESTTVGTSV

binding result (His-KRS): no binding
Kd [1]: 1.56 nM
binding result (His-GRS): no binding
binding result [2]: no binding (tested: 200 nM)
binding result (His-WRS): no binding
binding result (His-AIMP1): no binding
binding result (34S-AIMP2): no binding
koff [3]: 0.000213 s⁻¹
kon [3]: 137000 M⁻¹ s⁻¹
binding result (His-CRS): no binding
binding result [4]: binds
B1: 8A12 antibody (whole 8A12 IgG antibody) (antibody, V domains shown)
VH: DVKLQESGPGLVKPSQSLSLTCTVTGYSITSEYAWTWIRQFPGNKLEWMGYINYNGNTNLNPSLKSRISIIRDTSKNQFFLQLNSVTTEDTATYYCARSLWPRGWFAYWGQGTLVTVSA
VL: DIQMTQSPSSMYASLGERVTITCKASQDINSYLSWFQQKPGKSPKTLMYRANRLVDGVPSRFSGSGSGQDYSLTISSLEYEDMGIYYCLQYDEFPRTFGGGTKLEIKA
notes: Mouse monoclonal antibody from hybridoma 8A12; It was also made recombinantly in 293F cells with mouse IgG2a heavy and mouse kappa light chain vectors; also called MRS antibody; 8A12 clone expression antibody

Reference: patent US20200225234A1 (ONCOTAG DIAGNOSTICS, published 2020)
